Measurements from publication PMC2193676.

Molecular target: biotinylated K^d-SYIPSAEK(ABA)I (H-2K^d heavy chain, human β2-microglobulin, photoreactive PbCS(ABA) peptide) (not stated | human | Plasmodium berghei)
Test: SPR

Substance: soluble CD8αβ (extracellular portions of murine CD8α and CD8β fused to leucine zipper units) (complex)
- Kd: 99 µM
